Measured values reported in patent publication US20030125257A1, “Assay for identifying beta secretase inhibitors” (priority 2001, published 2003).

Target: purified full-length human BACE with six C-terminal His residues, expressed in Sf9 insect cells (human) (UniProt P56817)
Experiment: competitive radioligand binding assay, cholic acid against Tween-20 in the binding buffer

Sequence of purified full-length human BACE with six C-terminal His residues, expressed in Sf9 insect cells (human) (P56817 other isoform, or with tags, fused parts or gaps limits assumed): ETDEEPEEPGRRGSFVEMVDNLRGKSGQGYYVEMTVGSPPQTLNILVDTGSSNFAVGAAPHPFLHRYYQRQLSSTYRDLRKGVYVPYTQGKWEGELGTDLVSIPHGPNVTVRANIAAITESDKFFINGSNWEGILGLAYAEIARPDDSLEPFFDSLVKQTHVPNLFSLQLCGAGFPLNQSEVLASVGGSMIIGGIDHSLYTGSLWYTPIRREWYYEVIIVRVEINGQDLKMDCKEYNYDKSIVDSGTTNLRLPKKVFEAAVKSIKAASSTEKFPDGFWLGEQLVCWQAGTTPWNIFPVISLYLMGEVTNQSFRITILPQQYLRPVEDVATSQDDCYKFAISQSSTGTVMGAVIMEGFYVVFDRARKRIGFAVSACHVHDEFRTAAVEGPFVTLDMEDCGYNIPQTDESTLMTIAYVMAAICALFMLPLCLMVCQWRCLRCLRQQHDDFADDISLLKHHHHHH

fold reduction of IC-50 with cholic acid compared to Tween-20: 3 to 4 times
Substance: peptide H-4848 (Bachem), described in Nature, 1999, 402, 537
